{"source": "paper PMC9678342", "key": {"[1]": {"molecular_target": "HSV-1 glycoprotein D, C-terminal truncated mutant gD285 (aa 1-285) (herpes simplex virus type 1 (HSV-1))", "test": "AUC; sedimentation velocity, gD alone at 5, 10 and 20 uM in PBS pH 7.8, 20 C, 40k rpm, absorbance optics, c(s) distributions in SedFit; monomer and dimer species, said not to be in a monomer-dimer equilibrium"}, "[2]": {"molecular_target": "HSV-1 glycoprotein D, C-terminal truncated mutant gD306 (aa 1-306) (herpes simplex virus type 1 (HSV-1))", "test": "AUC; sedimentation velocity, gD alone at 5, 10 and 20 uM in PBS pH 7.8, 20 C, 40k rpm, absorbance optics, c(s) distributions in SedFit; monomer and dimer species, said not to be in a monomer-dimer equilibrium"}, "HVEM (Homo sapiens)": {"molecular_target": "HVEM (Homo sapiens) (UniProt Q92956)", "sequence (Q92956 39-283)": "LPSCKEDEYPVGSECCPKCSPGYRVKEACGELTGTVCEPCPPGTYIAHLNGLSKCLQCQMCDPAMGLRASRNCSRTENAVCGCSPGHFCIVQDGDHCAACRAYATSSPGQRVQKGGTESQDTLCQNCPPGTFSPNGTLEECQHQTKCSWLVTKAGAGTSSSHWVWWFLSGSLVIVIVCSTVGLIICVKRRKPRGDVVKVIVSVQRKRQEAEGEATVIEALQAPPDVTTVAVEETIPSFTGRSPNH", "conditions": "cited from earlier work"}}, "note": "pKd: −log10 of the molar value."}
{"substance": "HSV-1 glycoprotein D, C-terminal truncated mutant gD285 (aa 1-285) (domain or fragment)", "values": [{"measurement": "stoichiometry N", "setting": "[1]", "value": 2}]}
{"substance": "HSV-1 glycoprotein D, C-terminal truncated mutant gD306 (aa 1-306) (domain or fragment)", "values": [{"measurement": "stoichiometry N", "setting": "[2]", "value": 2}]}
{"substance": "glycoprotein D (gD285) gD285 (from UniProt Q69091)", "values": [{"measurement": "pKd", "setting": "HVEM (Homo sapiens)", "value": 7.43}]}
